Experimental data: article PMC10250241 (Nucleic Acids Research, 2023)

B1: mms22N-3D (S126, T127, S131D) (domain or fragment, S. cerevisiae, UniProt Q06164 1-300, looked up)
chain: MDVDEPNPIVISDSEATDEEISIIYEPEFNENYLWAEENVQEASRSQKIVTERLSLDSTAGESCTPSVVTDTQVTTGLRWSLRKRKAIQKMPYSLERIKHRQLLEGYDISSFDSISNQLTLPKNADDVIHDNDILLTKRTGKPLDEQKDVTIDSIKPENSSVQSQRYDSDEEIPKKRHRTFKDLDQDIVFQSGDSTEDEQDLASTNLQNTQNDEVIFRGRVLNVRTGYRGVLPRVAWEKSLQKQQSSKVTKRKTQLLNHKGVAKRKMNRSAHIEDEEQNLLNDLIAPDDELDIEENAPPD

Tests used:
[1] = molecular target: B1; test: SEC
SEC = molecular target: the molecule itself; test: SEC

binding result [1]	Binder	stoichiometry N (SEC)
binds	His6-Eco1 (enzyme, S. cerevisiae, UniProt P43605 1-281, looked up) MKARKSQRKAGSKPNLIQSKLQVNNGSKSNKIVKCDKCEMSYSSTSIEDRAIHEKYHTLQLHGRKWSPNWGSIVYTERNHSRTVHLSRSTGTITPLNSSPLKKSSPSITHQEEKIVYVRPDKSNGEVRAMTEIMTLVNNELNAPHDENVIWNSTTEEKGKAFVYIRNDRAVGIIIIENLYGGNGKTSSRGRWMVYDSRRLVQNVYPDFKIGISRIWVCRTARKLGIATKLIDVARENIVYGEVIPRYQVAWSQPTDSGGKLASKYNGIMHKSGKLLLPVYI	
	B1	2
